Reference: patent US20090075889A1 (YEDA RESEARCH AND DEVELOPMENT, published 2009)

B1: human TRAF2 (other, UniProt Q12933 1-501, looked up)
chain: MAAASVTPPGSLELLQPGFSKTLLGTKLEAKYLCSACRNVLRRPFQAQCGHRYCSFCLASILSSGPQNCAACVHEGIYEEGISILESSSAFPDNAARREVESLPAVCPSDGCTWKGTLKEYESCHEGRCPLMLTECPACKGLVRLGEKERHLEHECPERSLSCRHCRAPCCGADVKAHHEVCPKFPLTCDGCGKKKIPREKFQDHVKTCGKCRVPCRFHAIGCLETVEGEKQQEHEVQWLREHLAMLLSSVLEAKPLLGDQSHAGSELLQRCESLEKKTATFENIVCVLNREVERVAMTAEACSRQHRLDQDKIEALSSKVQQLERSIGLKDLAMADLEQKVLEMEASTYDGVFIWKISDFARKRQEAVAGRIPAIFSPAFYTSRYGYKMCLRIYLNGDGTGRGTHLSLFFVVMKGPNDALLRWPFNQKVTLMLLDQNNREHVIDAFRPDVTSSSFQRPVNDMNIASGCPLFCPVSKMEAKNSYVRDDAIFIKAIVDLTGL
notes: range 1-501; the fusion partner is not included in the chain; also called hTRAF2; full length TRAF2
B5: IREN 10B (other)
chain: MSGSQNNDKRQFLLERLLDAVKQCQIRFGGRKEIASDSDSRVTCLCAQFEAVLQHGLKRSRGLALTAAAIKQAAGFASKTETEPVFWYYVKEVLNKHELQRFYSLRHIASDVGRGRAWLRCALNEHSLERYLHMLLADRCRLSTFYEDWSFVMDEERSSMLPTMAAGLNSILFAINIDNKDLNGQSKFAPTVSDLLKESTQNVTSLLKESTQGVSSLFREITASSAVSILIKPEQETDPLPVVSRNVSADAKCKKERKKKKKVTNIISFDDEEDEQNSGDVFKKTPGAGESSEDNSDRSSVNIMSAFESPFGPNSNGSQSSNSWKIDSLSLNGEFGYQKLDVKSIDDEDVDENEDDVYGNSSGRKHRGHSESPEKPLEGNTCLSQMHSWAPLKVLHNDSDILFPVSGVGSYSPADAPLGSLENGTGPEDHVLPDPGLRYSVEASSPGHGSPLSSLLPSASVPESMTISELRQATVAMMNRKDELEEENRSLRNLLDGEMEHSAALRQEVDTLKRKVAEQEERQGMKVQALARENEVLKVQLKKYVGAVQMLKREGQTAEVPNLWSVDGEVTVAEQKPGEIAEELASSYERKLIEVAEMHGELIEFNERLHRALVAKEALVSQMRQELIDLRGPVPGDLSQTSEDQSLSDFEISNRALINVWIPSVFLRGKAANAFHVYQVYIRIKDDEWNIYRRYTEFRSLHHKLQNKYPQVRAYNFPPKKAIGNKDAKFVEERRKQLQNYLRSVMNKVIQMVPEFAASPKKETLIQLMPFFVDITPPGEPVNSRPKAASRFPKLSRGQPRETRNVEPQSGDL
notes: Splice isoform of IREN; Used as both bait and prey in yeast two-hybrid; also called clone 10B
B6: IREN (other)
chain: MSGSQNNDKRQFLLERLLDAVKQCQIRFGGRKEIASDSDSRVTCLCAQFEAVLQHGLKRSRGLALTAAAIKQAAGFASKTETEPVFWYYVKEVLNKHELQRFYSLRHIASDVGRGRAWLRCALNEHSLERYLHMLLADRCRLSTFYEDWSFVMDEERSSMLPTMAAGLNSILFAINIDNKDLNGQSKFAPTVSDLLKESTQNVTSLLKESTQGVSSLFREITASSAVSILIKPEQETDPLPVVSRNVSADAKCKKERKKKKKVTNIISFDDEEDEQNSGDVFKKTPGAGESSEDNSDRSSVNIMSAFESPFGPNSNGSQSSNSWKIDSLSLNGEFGYQKLDVKSIDDEDVDENEDDVYGNSSGRKHRGHSESPEKPLEGNTCLSQMHSWAPLKVLHNDSDILFPVSGVGSYSPADAPLGSLENGTGPEDHVLPDPGLRYSVEASSPGHGSPLSSLLPSASVPESMTISELRQATVAMMNRKDELEEENRSLRNLLDGEMEHSAALRQEVDTLKRKVAEQEERQGMKVQALASYLCYFVRRF
notes: Tested in yeast two-hybrid as a hybrid protein; the fusion partner is not included in the chain; also called IκB REgulator; IREN protein

Assays:
IREN [1] = target: B6; test: yeast two-hybrid, bait TRAF2, prey IREN
Experimental: (§1) Positive clones picked up in the two hybrid screen were subjected to lacZ color development test in SFY526 yeast cells, following Clontech Laboratories' manual (for details see above mentioned publications and patent applications). In brief, transformants were allowed to grow at 30° C. for 2-4 days until reaching about 2 mm in diameter, then were transferred onto Whatman filters. The filters went through a freeze/thaw treatment in order to permeabilize the cells, then soaked in a buffer (16.1 mg/ml Na₂HP0₄ 7H₂0; 5.5 mg/ml NaH₂P0₄′H₂0; 0.75 mg/ml KCl; 0.75 mg/ml MgS0₄′7H₂O, pH=7) containing 0.33 mg/ml X-gal and 0.35 mM β-mercaptoethanol. Colonies were monitored for development of blue color which is an indication for induction of β-galactosidase.
(§2) In order to narrow down the region on the TRAF2 molecule which interacts with IREN two additional constructs were made. One construct comprising the N-terminal part of the TRAF2 molecule, amino acids 1 to 224 designated RING₁₋₂₂₄ comprising the Ring finger and the zinc finger motifs. The second construct included only the C-terminal part of TRAF2, amino acids 225 to 501, covering the “TRAF-domain” as well as an additional 42 amino acids. These two constructs were used as baits in two hybrid tests.

IREN 10B = target: B5; test: yeast two-hybrid, bait TRAF2, prey IREN 10B
IREN [2] = target: B6; test: yeast two-hybrid, bait TRAF2225-501, prey IREN
Experimental: as §1, §2

human TRAF2 [3] = target: B1; test: yeast two-hybrid, bait TRAF2, prey IREN198-388
Experimental: as §1, §2

human TRAF2 [4] = target: B1; test: yeast two-hybrid, bait TRAF2, prey IREN198-541
Experimental: as §1, §2

[5] = target: the molecule itself; test: yeast two-hybrid, bait IREN 10B, prey IREN 10B
yeast two-hybrid = target: the molecule itself; test: yeast two-hybrid

Question: Which results are given for B1?
Answer: binding result (IREN [1]): binds; binding result (IREN 10B): binds

B2: TRAF2225-501 (other, human, UniProt Q12933 225-501, looked up)
chain: ETVEGEKQQEHEVQWLREHLAMLLSSVLEAKPLLGDQSHAGSELLQRCESLEKKTATFENIVCVLNREVERVAMTAEACSRQHRLDQDKIEALSSKVQQLERSIGLKDLAMADLEQKVLEMEASTYDGVFIWKISDFARKRQEAVAGRIPAIFSPAFYTSRYGYKMCLRIYLNGDGTGRGTHLSLFFVVMKGPNDALLRWPFNQKVTLMLLDQNNREHVIDAFRPDVTSSSFQRPVNDMNIASGCPLFCPVSKMEAKNSYVRDDAIFIKAIVDLTGL
notes: range 225-501; Two-hybrid bait construct; also called C-terminal part of TRAF2, amino acids 225 to 501; C-terminal construct comprising the TRAF domain
Question: Does B2 bind (IREN [2])?
Answer: binds

B3: IREN198-388 (other)
chain: ESTQNVTSLLKESTQGVSSLFREITASSAVSILIKPEQETDPLPVVSRNVSADAKCKKERKKKKKVTNIISFDDEEDEQNSGDVFKKTPGAGESSEDNSDRSSVNIMSAFESPFGPNSNGSQSSNSWKIDSLSLNGEFGYQKLDVKSIDDEDVDENEDDVYGNSSGRKHRGHSESPEKPLEGNTCLSQMHS
notes: Two-hybrid prey construct
Question: Does B3 bind (human TRAF2 [3])?
Answer: binds

B4: IREN198-541 (other)
chain: ESTQNVTSLLKESTQGVSSLFREITASSAVSILIKPEQETDPLPVVSRNVSADAKCKKERKKKKKVTNIISFDDEEDEQNSGDVFKKTPGAGESSEDNSDRSSVNIMSAFESPFGPNSNGSQSSNSWKIDSLSLNGEFGYQKLDVKSIDDEDVDENEDDVYGNSSGRKHRGHSESPEKPLEGNTCLSQMHSWAPLKVLHNDSDILFPVSGVGSYSPADAPLGSLENGTGPEDHVLPDPGLRYSVEASSPGHGSPLSSLLPSASVPESMTISELRQATVAMMNRKDELEEENRSLRNLLDGEMEHSAALRQEVDTLKRKVAEQEERQGMKVQALASYLCYFVRRF
notes: Two-hybrid prey construct; also called N-terminal deletion mutant of IREN; IRENΔN
Question: Does B4 bind (human TRAF2 [4])?
Answer: binds

Question: Does B5 bind [5]?
Answer: binds

Question: Does B6 bind (yeast two-hybrid)?
Answer: no binding
